Measured values from US20190233495A1 (Sanofi, published 2019).
One block for each binder: values may come before it. Non-standard residues stand in square brackets, D forms with d. 1Nal = N[C@@H](Cc1cccc2ccccc12)C(=O)O; Nle = CCCC[C@H](N)C(=O)O; Aib = CC(C)(N)C(=O)O

Biological target: T1, RXFP1 receptor (UniProt Q9HBX9 1-757, limits assumed)
T1 sequence (looked up): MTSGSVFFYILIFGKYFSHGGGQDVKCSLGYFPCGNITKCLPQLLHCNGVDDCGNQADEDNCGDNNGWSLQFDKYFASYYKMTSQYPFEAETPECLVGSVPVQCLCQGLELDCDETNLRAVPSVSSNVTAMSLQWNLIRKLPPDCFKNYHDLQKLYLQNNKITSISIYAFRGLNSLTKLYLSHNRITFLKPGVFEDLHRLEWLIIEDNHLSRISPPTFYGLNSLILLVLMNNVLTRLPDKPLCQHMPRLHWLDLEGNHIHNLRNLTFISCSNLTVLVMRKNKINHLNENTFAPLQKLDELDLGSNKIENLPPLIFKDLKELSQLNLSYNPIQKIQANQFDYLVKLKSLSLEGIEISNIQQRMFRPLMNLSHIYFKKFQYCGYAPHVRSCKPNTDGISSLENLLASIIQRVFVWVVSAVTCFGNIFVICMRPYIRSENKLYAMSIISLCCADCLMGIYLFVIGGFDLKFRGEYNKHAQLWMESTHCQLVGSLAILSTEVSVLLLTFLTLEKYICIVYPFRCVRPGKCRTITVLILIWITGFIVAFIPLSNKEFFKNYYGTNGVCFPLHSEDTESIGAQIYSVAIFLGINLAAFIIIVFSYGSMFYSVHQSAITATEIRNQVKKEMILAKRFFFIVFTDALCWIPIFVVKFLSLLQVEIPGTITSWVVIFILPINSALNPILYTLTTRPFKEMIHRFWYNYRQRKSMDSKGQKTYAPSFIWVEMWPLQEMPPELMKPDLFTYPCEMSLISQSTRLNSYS
Assay: cell-based or functional assay

B4: SEQ ID NO: 31 (peptide)
peptide: Ac-LEGREKVRAK(Ac)I[Aib][Aib]EG[Nle]STWS[Aib]RKQ-NH2
SMILES: CCCC[C@H](NC(=O)CNC(=O)[C@H](CCC(=O)O)NC(=O)C(C)(C)NC(=O)C(C)(C)NC(=O)[C@@H](NC(=O)[C@H](CCCCNC(C)=O)NC(=O)[C@H](C)NC(=O)[C@H](CCCNC(=N)N)NC(=O)[C@@H](NC(=O)[C@H](CCCCN)NC(=O)[C@H](CCC(=O)O)NC(=O)[C@H](CCCNC(=N)N)NC(=O)CNC(=O)[C@H](CCC(=O)O)NC(=O)[C@H](CC(C)C)NC(C)=O)C(C)C)[C@@H](C)CC)C(=O)N[C@@H](CO)C(=O)N[C@H](C(=O)N[C@@H](Cc1c[nH]c2ccccc12)C(=O)N[C@@H](CO)C(=O)NC(C)(C)C(=O)N[C@@H](CCCNC(=N)N)C(=O)N[C@@H](CCCCN)C(=O)N[C@@H](CCC(N)=O)C(N)=O)[C@@H](C)O
cAMP assay in OVCAR 5 cells EC50: 51.7 nM
cAMP assay in OVCAR 5 cells Emax: 96%

B7: SEQ ID NO: 4 (peptide)
peptide: Ac-LEGREKVRAQI[Aib][Aib]EGMSTWS[Aib]RKK-NH2
SMILES: CC[C@H](C)[C@H](NC(=O)[C@H](CCC(N)=O)NC(=O)[C@H](C)NC(=O)[C@H](CCCNC(=N)N)NC(=O)[C@@H](NC(=O)[C@H](CCCCN)NC(=O)[C@H](CCC(=O)O)NC(=O)[C@H](CCCNC(=N)N)NC(=O)CNC(=O)[C@H](CCC(=O)O)NC(=O)[C@H](CC(C)C)NC(C)=O)C(C)C)C(=O)NC(C)(C)C(=O)NC(C)(C)C(=O)N[C@@H](CCC(=O)O)C(=O)NCC(=O)N[C@@H](CCSC)C(=O)N[C@@H](CO)C(=O)N[C@H](C(=O)N[C@@H](Cc1c[nH]c2ccccc12)C(=O)N[C@@H](CO)C(=O)NC(C)(C)C(=O)N[C@@H](CCCNC(=N)N)C(=O)N[C@@H](CCCCN)C(=O)N[C@@H](CCCCN)C(N)=O)[C@@H](C)O
cAMP assay in OVCAR 5 cells EC50: 14.1 nM
cAMP assay in OVCAR 5 cells Emax: 99%

B8: SEQ ID NO: 29 (peptide)
peptide: Ac-LEGREKVRAK(Ac)I[Aib][Aib]EG[Nle]ST[1Nal]S[Aib]RKK(Ac)-NH2
SMILES: CCCC[C@H](NC(=O)CNC(=O)[C@H](CCC(=O)O)NC(=O)C(C)(C)NC(=O)C(C)(C)NC(=O)[C@@H](NC(=O)[C@H](CCCCNC(C)=O)NC(=O)[C@H](C)NC(=O)[C@H](CCCNC(=N)N)NC(=O)[C@@H](NC(=O)[C@H](CCCCN)NC(=O)[C@H](CCC(=O)O)NC(=O)[C@H](CCCNC(=N)N)NC(=O)CNC(=O)[C@H](CCC(=O)O)NC(=O)[C@H](CC(C)C)NC(C)=O)C(C)C)[C@@H](C)CC)C(=O)N[C@@H](CO)C(=O)N[C@H](C(=O)N[C@@H](Cc1cccc2ccccc12)C(=O)N[C@@H](CO)C(=O)NC(C)(C)C(=O)N[C@@H](CCCNC(=N)N)C(=O)N[C@@H](CCCCN)C(=O)N[C@@H](CCCCNC(C)=O)C(N)=O)[C@@H](C)O
cAMP assay in OVCAR 5 cells EC50: 13.8 nM
cAMP assay in OVCAR 5 cells Emax: 98%

B9: SEQ ID NO: 28 (peptide)
peptide: Ac-LEGREKVRAK(Ac)I[Aib][Aib]EG[Nle]STWS[Aib]RKK(Ac)K(Ac)-NH2
SMILES: CCCC[C@H](NC(=O)CNC(=O)[C@H](CCC(=O)O)NC(=O)C(C)(C)NC(=O)C(C)(C)NC(=O)[C@@H](NC(=O)[C@H](CCCCNC(C)=O)NC(=O)[C@H](C)NC(=O)[C@H](CCCNC(=N)N)NC(=O)[C@@H](NC(=O)[C@H](CCCCN)NC(=O)[C@H](CCC(=O)O)NC(=O)[C@H](CCCNC(=N)N)NC(=O)CNC(=O)[C@H](CCC(=O)O)NC(=O)[C@H](CC(C)C)NC(C)=O)C(C)C)[C@@H](C)CC)C(=O)N[C@@H](CO)C(=O)N[C@H](C(=O)N[C@@H](Cc1c[nH]c2ccccc12)C(=O)N[C@@H](CO)C(=O)NC(C)(C)C(=O)N[C@@H](CCCNC(=N)N)C(=O)N[C@@H](CCCCN)C(=O)N[C@@H](CCCCNC(C)=O)C(=O)N[C@@H](CCCCNC(C)=O)C(N)=O)[C@@H](C)O
cAMP assay in OVCAR 5 cells EC50: 22.5 nM
cAMP assay in OVCAR 5 cells Emax: 92%

Continued, values first:

cAMP assay in OVCAR 5 cells EC50: 38.6 nM
cAMP assay in OVCAR 5 cells Emax: 95%
B1: SEQ ID NO: 32 (peptide)
peptide: Ac-LEGREKVRAK(Ac)I[Aib][Aib]EG[Nle]STWS[Aib]RKL-NH2
SMILES: CCCC[C@H](NC(=O)CNC(=O)[C@H](CCC(=O)O)NC(=O)C(C)(C)NC(=O)C(C)(C)NC(=O)[C@@H](NC(=O)[C@H](CCCCNC(C)=O)NC(=O)[C@H](C)NC(=O)[C@H](CCCNC(=N)N)NC(=O)[C@@H](NC(=O)[C@H](CCCCN)NC(=O)[C@H](CCC(=O)O)NC(=O)[C@H](CCCNC(=N)N)NC(=O)CNC(=O)[C@H](CCC(=O)O)NC(=O)[C@H](CC(C)C)NC(C)=O)C(C)C)[C@@H](C)CC)C(=O)N[C@@H](CO)C(=O)N[C@H](C(=O)N[C@@H](Cc1c[nH]c2ccccc12)C(=O)N[C@@H](CO)C(=O)NC(C)(C)C(=O)N[C@@H](CCCNC(=N)N)C(=O)N[C@@H](CCCCN)C(=O)N[C@@H](CC(C)C)C(N)=O)[C@@H](C)O

cAMP assay in OVCAR 5 cells EC50: 15.8 nM
B2: SEQ ID NO: 35 (peptide)
peptide: Ac-LEGREKVRAQI[Aib][Aib]EGQSTWS[Aib]RKK-NH2
SMILES: CC[C@H](C)[C@H](NC(=O)[C@H](CCC(N)=O)NC(=O)[C@H](C)NC(=O)[C@H](CCCNC(=N)N)NC(=O)[C@@H](NC(=O)[C@H](CCCCN)NC(=O)[C@H](CCC(=O)O)NC(=O)[C@H](CCCNC(=N)N)NC(=O)CNC(=O)[C@H](CCC(=O)O)NC(=O)[C@H](CC(C)C)NC(C)=O)C(C)C)C(=O)NC(C)(C)C(=O)NC(C)(C)C(=O)N[C@@H](CCC(=O)O)C(=O)NCC(=O)N[C@@H](CCC(N)=O)C(=O)N[C@@H](CO)C(=O)N[C@H](C(=O)N[C@@H](Cc1c[nH]c2ccccc12)C(=O)N[C@@H](CO)C(=O)NC(C)(C)C(=O)N[C@@H](CCCNC(=N)N)C(=O)N[C@@H](CCCCN)C(=O)N[C@@H](CCCCN)C(N)=O)[C@@H](C)O

cAMP assay in OVCAR 5 cells EC50: 86.3 nM
cAMP assay in OVCAR 5 cells Emax: 105%
B3: SEQ ID NO: 33 (peptide)
peptide: Ac-LEGREKVRK(Ac)QI[Aib][Aib]EG[Nle]STWS[Aib]RKK-NH2
SMILES: CCCC[C@H](NC(=O)CNC(=O)[C@H](CCC(=O)O)NC(=O)C(C)(C)NC(=O)C(C)(C)NC(=O)[C@@H](NC(=O)[C@H](CCC(N)=O)NC(=O)[C@H](CCCCNC(C)=O)NC(=O)[C@H](CCCNC(=N)N)NC(=O)[C@@H](NC(=O)[C@H](CCCCN)NC(=O)[C@H](CCC(=O)O)NC(=O)[C@H](CCCNC(=N)N)NC(=O)CNC(=O)[C@H](CCC(=O)O)NC(=O)[C@H](CC(C)C)NC(C)=O)C(C)C)[C@@H](C)CC)C(=O)N[C@@H](CO)C(=O)N[C@H](C(=O)N[C@@H](Cc1c[nH]c2ccccc12)C(=O)N[C@@H](CO)C(=O)NC(C)(C)C(=O)N[C@@H](CCCNC(=N)N)C(=O)N[C@@H](CCCCN)C(=O)N[C@@H](CCCCN)C(N)=O)[C@@H](C)O

cAMP assay in OVCAR 5 cells EC50: 68.7 nM
cAMP assay in OVCAR 5 cells Emax: 96%
B5: SEQ ID NO: 34 (peptide)
peptide: Ac-LEGREKVRK(Ac)[Aib]I[Aib][Aib]EG[Nle]STWS[Aib]RKK-NH2
SMILES: CCCC[C@H](NC(=O)CNC(=O)[C@H](CCC(=O)O)NC(=O)C(C)(C)NC(=O)C(C)(C)NC(=O)[C@@H](NC(=O)C(C)(C)NC(=O)[C@H](CCCCNC(C)=O)NC(=O)[C@H](CCCNC(=N)N)NC(=O)[C@@H](NC(=O)[C@H](CCCCN)NC(=O)[C@H](CCC(=O)O)NC(=O)[C@H](CCCNC(=N)N)NC(=O)CNC(=O)[C@H](CCC(=O)O)NC(=O)[C@H](CC(C)C)NC(C)=O)C(C)C)[C@@H](C)CC)C(=O)N[C@@H](CO)C(=O)N[C@H](C(=O)N[C@@H](Cc1c[nH]c2ccccc12)C(=O)N[C@@H](CO)C(=O)NC(C)(C)C(=O)N[C@@H](CCCNC(=N)N)C(=O)N[C@@H](CCCCN)C(=O)N[C@@H](CCCCN)C(N)=O)[C@@H](C)O

cAMP assay in OVCAR 5 cells EC50: 9.5 nM
cAMP assay in OVCAR 5 cells Emax: 95%
B6: SEQ ID NO: 27 (peptide)
peptide: Ac-LEGREKVRAK(Ac)I[Aib][Aib]EG[Nle]STWS[Aib]RKK(Ac)K-NH2
SMILES: CCCC[C@H](NC(=O)CNC(=O)[C@H](CCC(=O)O)NC(=O)C(C)(C)NC(=O)C(C)(C)NC(=O)[C@@H](NC(=O)[C@H](CCCCNC(C)=O)NC(=O)[C@H](C)NC(=O)[C@H](CCCNC(=N)N)NC(=O)[C@@H](NC(=O)[C@H](CCCCN)NC(=O)[C@H](CCC(=O)O)NC(=O)[C@H](CCCNC(=N)N)NC(=O)CNC(=O)[C@H](CCC(=O)O)NC(=O)[C@H](CC(C)C)NC(C)=O)C(C)C)[C@@H](C)CC)C(=O)N[C@@H](CO)C(=O)N[C@H](C(=O)N[C@@H](Cc1c[nH]c2ccccc12)C(=O)N[C@@H](CO)C(=O)NC(C)(C)C(=O)N[C@@H](CCCNC(=N)N)C(=O)N[C@@H](CCCCN)C(=O)N[C@@H](CCCCNC(C)=O)C(=O)N[C@@H](CCCCN)C(N)=O)[C@@H](C)O
